Assay results: publication PMC4406087, “Remaining challenges in cellular flavin cofactor homeostasis and flavoprotein biogenesis” (Frontiers in Chemistry, 2015)

Legend:
[1] = tested on: T1, Cc1cc2nc3c(=O)[nH]c(=O)nc-3n(C[C@H](O)[C@H](O)[C@H](O)COP(=O)(O)O)c2cc1C; assay: spectrofluorimetric FAD synthesis assay; format: biochemical, Homo sapiens; settings: 50 mM Tris-HCl pH 7.5, 5 mM MgCl2, 37°C, Km app at the highest ATP (ATP 1 to 100 μM; 8 μM at lowest ATP)
T1 construct: recombinant 6His-tagged cytosolic isoform 2, purified

[2] = tested on: T2, Nc1ncnc2c1ncn2[C@@H]1O[C@H](COP(=O)(O)OP(=O)(O)OP(=O)(O)O)[C@@H](O)[C@H]1O; assay: spectrofluorimetric FAD synthesis assay; format: biochemical, Homo sapiens; settings: 50 mM Tris-HCl pH 7.5, 5 mM MgCl2, 37°C, FMN 0.1-2 μM, ordered bi-bi, ATP binds first
T2 construct: recombinant 6His-tagged cytosolic isoform 2, purified

Sequence of 6His-hFADS2 (Homo sapiens) (chain, as listed by the source): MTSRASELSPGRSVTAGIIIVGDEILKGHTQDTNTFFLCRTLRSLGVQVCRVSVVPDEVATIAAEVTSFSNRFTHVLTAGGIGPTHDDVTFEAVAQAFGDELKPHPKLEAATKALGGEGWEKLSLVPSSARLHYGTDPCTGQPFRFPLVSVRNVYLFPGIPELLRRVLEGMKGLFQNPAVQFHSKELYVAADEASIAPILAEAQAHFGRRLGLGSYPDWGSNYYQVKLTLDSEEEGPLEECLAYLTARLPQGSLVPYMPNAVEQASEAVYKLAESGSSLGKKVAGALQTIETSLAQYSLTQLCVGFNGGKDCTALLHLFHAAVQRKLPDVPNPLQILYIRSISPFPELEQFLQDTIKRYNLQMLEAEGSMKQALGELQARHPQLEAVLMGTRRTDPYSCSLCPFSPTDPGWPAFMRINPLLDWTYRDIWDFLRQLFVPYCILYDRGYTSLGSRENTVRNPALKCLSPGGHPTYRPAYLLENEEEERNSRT

6His-hFADS2 (Homo sapiens) was tested, and the Km [1] was 0.4 µM and the Km [2] was 15 µM.
